Several values for one entry are separate records, joined by “and”; a condition that tells them apart may be missing. Equal values may be shown once.
Columns and labels:
Details in all cases: both partners purified
[1] = biological target: T1, HspA5 substrate binding domain (SBD) (human, UniProt P11021 420-654); test: MST; NTA-labelled TDP-43(102-269), HspA5 titrated, in the presence of UG6 RNA (increasing concentrations; concentration not given)
T1 construct: SBD approximately 200 amino acids long; vector pSpeedET; also called HspA5-SBD; Grp78; source: E. coli BL21-Codon plus, purified (cobalt IMAC, TEV cleavage)
T1 sequence (P11021 420-654): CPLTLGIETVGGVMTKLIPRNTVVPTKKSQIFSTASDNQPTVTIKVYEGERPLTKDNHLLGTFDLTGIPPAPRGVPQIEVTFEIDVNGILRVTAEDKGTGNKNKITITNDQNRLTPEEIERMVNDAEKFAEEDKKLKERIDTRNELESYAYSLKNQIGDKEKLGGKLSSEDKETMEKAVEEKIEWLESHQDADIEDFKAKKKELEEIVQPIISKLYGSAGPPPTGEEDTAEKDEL

[2] = biological target: T1, HspA5 substrate binding domain (SBD); test: MST; 50 nM labelled TDP-43 construct (RED-NTA labelling), ranging concentrations of Hsp70 SBD titrated, MST buffer, premium capillaries, 40% LED, medium MST power; no RNA
[3] = biological target: T2, HspA1A substrate binding domain (SBD) (human, UniProt P0DMV8 395-641); test: as above
T2 construct: SBD approximately 200 amino acids long; vector pSpeedET; also called Hsp70 SBD; source: E. coli BL21-Codon plus, purified (cobalt IMAC, TEV cleavage)
T2 sequence (P0DMV8 395-641): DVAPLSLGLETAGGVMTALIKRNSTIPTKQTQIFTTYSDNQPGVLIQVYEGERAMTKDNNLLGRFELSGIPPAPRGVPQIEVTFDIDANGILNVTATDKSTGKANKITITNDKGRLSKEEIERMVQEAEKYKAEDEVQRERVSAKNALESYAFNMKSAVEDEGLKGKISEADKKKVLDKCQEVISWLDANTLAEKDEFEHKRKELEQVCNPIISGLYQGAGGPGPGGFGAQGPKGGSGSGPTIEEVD

Kd [1]: 28.3 µM
Kd [2]: 0.298 µM and 0.89 µM
Kd [3]: 2.35 µM
B1: TDP43_(102-269)-His (domain or fragment, human, UniProt Q13148 102-269, looked up)
chain: KTSDLIVLGLPWKTTEQDLKEYFSTFGEVLMVQVKKDLKTGHSKGFGFVRFTEYETQVKVMSQRHMIDGRWCDCKLPNSKQSQDEPLRSRKVFVGRCTEDMTEDELREFFSQYGDVMDVFIPKPFRAFAFVTFADDQIAQSLCGEDLIIKGISVHISNAEPKHNSNRQ
modifications: labelled with Monolith Protein Labeling Kit RED-NTA
notes: also called RRM domain; RRM domains of TDP-43; source: recombinantly expressed, purified

— article PMC9114370, “Heat shock protein Grp78/BiP/HspA5 binds directly to TDP-43 and mitigates toxicity associated with disease pathology” (Scientific Reports, 2022)
